From IntAct's records for PubMed 19293378

B1: Apoptosis regulator BHRF1 (Epstein-Barr virus (strain B95-8) (HHV-4)), P03182 (parent)
chain: MAYSTREILLALCIRDSRVHGNGTLHPVLELAARETPLRLSPEDTVVLRYHVLLEEIIERNSETFTETWNRFITHTEHVDLDFNSVFLEIFHRGDPSLGRALAWMAWCMHACRTLCCNQSTPYYVVDLSVRGMLEASEGLDGWIHQQGGWSTLIEDNIPGSRRFSWTLFLAGLTLSLLVICSYLFISRGRH
partner: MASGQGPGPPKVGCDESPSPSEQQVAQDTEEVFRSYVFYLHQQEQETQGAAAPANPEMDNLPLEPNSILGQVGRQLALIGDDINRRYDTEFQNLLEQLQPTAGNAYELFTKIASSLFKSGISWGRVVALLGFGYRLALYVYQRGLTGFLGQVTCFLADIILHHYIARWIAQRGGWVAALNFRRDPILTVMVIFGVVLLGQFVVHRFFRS
B2: Apoptosis regulator BHRF1 (Epstein-Barr virus (strain B95-8) (HHV-4)), P03182 (parent)
chain: B1 chain

Variants of: B1
Details: with bak_mouse Bak1, O08734

| Variant | effect of a mutation on the interaction |
| --- | --- |
| R100A | decreasing interaction strength |
| L98A;G99A;R100A | disrupting interaction strength |
| G99A | decreasing interaction strength |
| L98A | decreasing interaction strength |

Variants of: B2
Details: with Bcl2l11, O54918
Chain of Bcl2l11, O54918 (O54918 whole entry): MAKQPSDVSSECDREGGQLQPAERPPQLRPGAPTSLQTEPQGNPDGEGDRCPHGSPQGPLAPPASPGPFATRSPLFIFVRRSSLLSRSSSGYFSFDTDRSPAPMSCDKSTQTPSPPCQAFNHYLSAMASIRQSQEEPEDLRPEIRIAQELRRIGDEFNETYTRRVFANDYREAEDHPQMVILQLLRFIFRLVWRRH

| Variant | effect of a mutation on the interaction |
| --- | --- |
| G99A | decreasing interaction strength |
